Results as given in article PMC4924860, “Environmental Factors Modulating the Stability and Enzymatic Activity of the Petrotoga mobilis Esterase (PmEst)” (PLoS ONE, 2016).

B1: PmEst (Petrotoga mobilis SJ95) (protein)
chain: MALLEVNFMSRSLMRKVPIMVVLPMDKANLSGKSEITDNDNNTFKTLYLLHGIFGNYSDWVSETRIQRLAEGRNLAVVMPSGENSFYLDQPESGNFYGEFIGRELVNITRKMFPLSRKKEDTFIAGLSMGGYGAIRNGLKYHETFGCVAGLSSALNFEQMLDESYQVIACKKSAFGDPKEAILSDKNPKVLVKNIKENPLGQFPKMYMACGTEDNLINSNRDFRDFLIENNVDLTYEEGPGAHTWEFWDTYIEKVLDWLPLKKPS
notes: synthetic gene, modified pET28a, N-terminal His6-SUMO fusion cut by SUMO protease; E. coli Rosetta (DE3); PFAM PF00756 esterase

What was measured:
[1] = biological target: Petrotoga mobilis esterase (PmEst) (Petrotoga mobilis); experiment: SEC; Superdex 200 10/300 GL column, calibrated with carbonic anhydrase, ovalbumin, bovine serum albumin, conalbumin and aldolase; purified PmEst in aqueous solution
purified protein [2] = substrate: CC(=O)Oc1ccc([N+](=O)[O-])cc1; experiment: purified protein; format: biochemical, Petrotoga mobilis; details: 10 mM sodium phosphate pH 7.4, 500 nM enzyme, acetonitrile from substrate stock, temperature of the kinetics not stated
purified protein [3] = substrate: CCCC(=O)Oc1ccc([N+](=O)[O-])cc1; experiment: purified protein; format: biochemical, Petrotoga mobilis; details: 10 mM sodium phosphate pH 7.4, 500 nM enzyme, acetonitrile from substrate stock, temperature of the kinetics not stated

stoichiometry N [1] | Molecule | Km (purified protein [2]) | kcat (purified protein [2]) | kcat/Km (purified protein [2]) | Km (purified protein [3]) | kcat (purified protein [3]) | kcat/Km (purified protein [3])
3 | Petrotoga mobilis esterase (PmEst) (enzyme) |  |  |  |  |  | 
 | B1 | 1430 ± 170 µM | 29.2 ± 1.2 s⁻¹ | 20500 ± 1600 M⁻¹ s⁻¹ | 160 ± 10 µM | 14.1 ± 0.29 s⁻¹ | 88100 ± 6000 M⁻¹ s⁻¹
